B1: CLCN6 (parent)
chain: FQSISLRKIQFNFPYFRSDRDKRD
B2: VTI1B (parent)
chain: ANETLAEMEEELRYAPLSFRNPMM

Variants of: B1
Test: protein stability index of a GFP-peptide fusion (GPS, HEK-293T) (PSI 1-6); higher = more stable
Details: c terminus: a fixed tail appended
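Note: lentivirally expressed fusions sorted by FACS into six bins by GFP to DsRed ratio, PSI derived from sequencing read proportions per bin multiplied by bin number.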

Variant	protein stability index
FQSISLRKIHFNFPYFRSDRDKRD [Q10H]	1.51
FQSISLRKIFFNFPYFRSDRDKRD [Q10F]	1.52
FQSISLRKICFNFPYFRSDRDKRD [Q10C]	2.6
FQSISLRKIQGNFPYFRSDRDKRD [F11G]	1.41
FQSISLRKIQRNFPYFRSDRDKRD [F11R]	1.51
FQSISLRKIQENFPYFRSDRDKRD [F11E]	2.02
FQSISLRKIQQNFPYFRSDRDKRD [F11Q]	1.25
FQSISLRKIQCNFPYFRSDRDKRD [F11C]	1.96
FQSISLRKIQLNFPYFRSDRDKRD [F11L]	2.54
FQSISLRKIQMNFPYFRSDRDKRD [F11M]	1.65
FQSISLRKIQSNFPYFRSDRDKRD [F11S]	1.56
FQSISLRKIQYNFPYFRSDRDKRD [F11Y]	1.61
FQSISLRKIQHNFPYFRSDRDKRD [F11H]	1.74
FQSISLRKIQKNFPYFRSDRDKRD [F11K]	2.79
FQSISLRKIQPNFPYFRSDRDKRD [F11P]	1.28
FQSISLRKEQFNFPYFRSDRDKRD [I9E]	1.98
FQSISLRKWQFNFPYFRSDRDKRD [I9W]	1.78
FQSISLRKDQFNFPYFRSDRDKRD [I9D]	1.72
FQSISLRKPQFNFPYFRSDRDKRD [I9P]	1.65
FQSISLRKHQFNFPYFRSDRDKRD [I9H]	1.83
FQSISLRKLQFNFPYFRSDRDKRD [I9L]	1.62
FQSISLRKNQFNFPYFRSDRDKRD [I9N]	1.47
FQSISLRKCQFNFPYFRSDRDKRD [I9C]	1.98

Variant	protein stability index
FQSISLRKQQFNFPYFRSDRDKRD [I9Q]	2.81
FQSISLRKRQFNFPYFRSDRDKRD [I9R]	2.02
FQSISLRKGQFNFPYFRSDRDKRD [I9G]	1.44
FQSISLRKTQFNFPYFRSDRDKRD [I9T]	2.78
FQSISLRKSQFNFPYFRSDRDKRD [I9S]	2
FQSESLRKIQFNFPYFRSDRDKRD [I4E]	1.91
FQSSSLRKIQFNFPYFRSDRDKRD [I4S]	1.74
FQSVSLRKIQFNFPYFRSDRDKRD [I4V]	1.98
FQSASLRKIQFNFPYFRSDRDKRD [I4A]	2.71
FQSLSLRKIQFNFPYFRSDRDKRD [I4L]	2.44
FQSDSLRKIQFNFPYFRSDRDKRD [I4D]	2.05
FQSYSLRKIQFNFPYFRSDRDKRD [I4Y]	1.42
FQSQSLRKIQFNFPYFRSDRDKRD [I4Q]	1.9
FQSPSLRKIQFNFPYFRSDRDKRD [I4P]	2.19
FQSGSLRKIQFNFPYFRSDRDKRD [I4G]	2.02
FQSMSLRKIQFNFPYFRSDRDKRD [I4M]	3
FQSTSLRKIQFNFPYFRSDRDKRD [I4T]	2.21
FQSNSLRKIQFNFPYFRSDRDKRD [I4N]	1.98
HQSISLRKIQFNFPYFRSDRDKRD [F1H]	2.83
AQSISLRKIQFNFPYFRSDRDKRD [F1A]	2.6
CQSISLRKIQFNFPYFRSDRDKRD [F1C]	2.4
SQSISLRKIQFNFPYFRSDRDKRD [F1S]	3.4
KQSISLRKIQFNFPYFRSDRDKRD [F1K]	3.31

Variant	protein stability index
QQSISLRKIQFNFPYFRSDRDKRD [F1Q]	3.52
TQSISLRKIQFNFPYFRSDRDKRD [F1T]	2.77
DQSISLRKIQFNFPYFRSDRDKRD [F1D]	3.34
EQSISLRKIQFNFPYFRSDRDKRD [F1E]	4
PQSISLRKIQFNFPYFRSDRDKRD [F1P]	2.29
IQSISLRKIQFNFPYFRSDRDKRD [F1I]	2.16
NQSISLRKIQFNFPYFRSDRDKRD [F1N]	3.76
GQSISLRKIQFNFPYFRSDRDKRD [F1G]	2.16
RQSISLRKIQFNFPYFRSDRDKRD [F1R]	2.07
FQNISLRKIQFNFPYFRSDRDKRD [S3N]	1.82
FQTISLRKIQFNFPYFRSDRDKRD [S3T]	1.79
FQAISLRKIQFNFPYFRSDRDKRD [S3A]	1.4
FQFISLRKIQFNFPYFRSDRDKRD [S3F]	2.58
FQRISLRKIQFNFPYFRSDRDKRD [S3R]	1.38
FQQISLRKIQFNFPYFRSDRDKRD [S3Q]	1.66
FQDISLRKIQFNFPYFRSDRDKRD [S3D]	2.19
FQGISLRKIQFNFPYFRSDRDKRD [S3G]	1.89
FQEISLRKIQFNFPYFRSDRDKRD [S3E]	2.73
FQIISLRKIQFNFPYFRSDRDKRD [S3I]	1.74
FQWISLRKIQFNFPYFRSDRDKRD [S3W]	2.4
FQPISLRKIQFNFPYFRSDRDKRD [S3P]	2.29
FQHISLRKIQFNFPYFRSDRDKRD [S3H]	1.46
FQLISLRKIQFNFPYFRSDRDKRD [S3L]	1.08

Variant	protein stability index
FQSISLRKIQFNFGYFRSDRDKRD [P14G]	1.69
FQSISLRKIQFNFLYFRSDRDKRD [P14L]	1.24
FQSISLRKIQFNFCYFRSDRDKRD [P14C]	1.82
FQSISLRKIQFNFFYFRSDRDKRD [P14F]	1.69
FQSISLRKIQFNFIYFRSDRDKRD [P14I]	1.43
FQSISLRKIQFNFHYFRSDRDKRD [P14H]	1.67
FQSISLRKIQFNFQYFRSDRDKRD [P14Q]	2.5
FQSISLRKIQFNFEYFRSDRDKRD [P14E]	1.99
FQSISLRKIQFNFNYFRSDRDKRD [P14N]	1.81
FQSISLRKIQFNEPYFRSDRDKRD [F13E]	3.21
FQSISLRKIQFNKPYFRSDRDKRD [F13K]	1.8
FQSISLRKIQFNQPYFRSDRDKRD [F13Q]	2.28
FQSISLRKIQFNMPYFRSDRDKRD [F13M]	2.29
FQSISLRKIQFNSPYFRSDRDKRD [F13S]	1.59
FQSISLRKIQFNCPYFRSDRDKRD [F13C]	2.2
FQSISLRKIQFNAPYFRSDRDKRD [F13A]	1.84
FQSISLRKIQFNIPYFRSDRDKRD [F13I]	1.35
FQSISLRKIQFNVPYFRSDRDKRD [F13V]	1.43
FQSISLRKIQFNYPYFRSDRDKRD [F13Y]	2.49
FQSISLRKIQFNPPYFRSDRDKRD [F13P]	1.75
FQSISLRKIQFNDPYFRSDRDKRD [F13D]	1.98

Variants of: B2
Test: as above
Details: c terminus: a fixed tail appended

Variant	protein stability index
ANETLAEMEEELRYAPLSFRNVMM [P22V]	2.81
ANETLAEMEEPLRYAPLSFRNPMM [E11P]	2.17
ANPTLAEMEEELRYAPLSFRNPMM [E3P]	2.26
ANETLAEMEEELRYAPLSFRNPMA [M24A]	3.78
